Numbered stars: 1 amine (or outer) side, 2 acyl side, 3 side chain; on linkers, the order of the positions; unused ones are H or OH. Square brackets hold non-standard residues; d marks the D form. Side chains are listed from the residue outwards. Ends that are not written are not given here. * marks the point of attachment. Phe(4-CH2NH2) = NCc1ccc(C[C@H](N)C(=O)O)cc1; C18 diacid = O=C(O)CCCCCCCCCCCCCCCCC(=O)*; C16 diacid = O=C(O)CCCCCCCCCCCCCCC(=O)*; γGlu = O=C(O)[C@H](CCC(=O)[*:2])N[*:1]; Met(O2) = CS(=O)(=O)CC[C@H](N)C(=O)O; αMeD = C[C@](N)(CC(=O)O)C(=O)O; AEEA = NCCOCCOCC(=O)O; Aib = CC(C)(N)C(=O)O
B1: TP827 (peptide)
peptide: H[Aib]QGTFTSDYSKYLDARAAQK([AEEA-AEEA-γGlu-C16 diacid])FVQWL[Met(O2)][γGlu]T-NH2
modifications: N-terminus assumed
SMILES: CC(C)C[C@H](NC(=O)[C@H](Cc1ccc(O)cc1)NC(=O)[C@H](CCCCN)NC(=O)[C@H](CO)NC(=O)[C@H](Cc1ccc(O)cc1)NC(=O)[C@H](CC(=O)O)NC(=O)[C@H](CO)NC(=O)[C@@H](NC(=O)[C@H](Cc1ccccc1)NC(=O)[C@@H](NC(=O)CNC(=O)[C@H](CCC(N)=O)NC(=O)C(C)(C)NC(=O)[C@@H](N)Cc1c[nH]cn1)[C@@H](C)O)[C@@H](C)O)C(=O)N[C@@H](CC(=O)O)C(=O)N[C@@H](C)C(=O)N[C@@H](CCCNC(=N)N)C(=O)N[C@@H](C)C(=O)N[C@@H](C)C(=O)N[C@@H](CCC(N)=O)C(=O)N[C@@H](CCCCNC(=O)COCCOCCNC(=O)COCCOCCNC(=O)CC[C@H](NC(=O)CCCCCCCCCCCCCCC(=O)O)C(=O)O)C(=O)N[C@@H](Cc1ccccc1)C(=O)N[C@H](C(=O)N[C@@H](CCC(N)=O)C(=O)N[C@@H](Cc1c[nH]c2ccccc12)C(=O)N[C@@H](CC(C)C)C(=O)N[C@@H](CCS(C)(=O)=O)C(=O)N[C@@H](CCC(=O)N[C@H](C(N)=O)[C@@H](C)O)C(=O)O)C(C)C
B2: TP828 (peptide)
peptide: H[Aib]QGTFTSDYSKYLD[Aib]RAAQDFVK([AEEA-AEEA-γGlu-C16 diacid])WL[Met(O2)][γGlu]T-NH2
modifications: N-terminus assumed
SMILES: CC(C)C[C@H](NC(=O)[C@H](Cc1c[nH]c2ccccc12)NC(=O)[C@H](CCCCNC(=O)COCCOCCNC(=O)COCCOCCNC(=O)CC[C@H](NC(=O)CCCCCCCCCCCCCCC(=O)O)C(=O)O)NC(=O)[C@@H](NC(=O)[C@H](Cc1ccccc1)NC(=O)[C@H](CC(=O)O)NC(=O)[C@H](CCC(N)=O)NC(=O)[C@H](C)NC(=O)[C@H](C)NC(=O)[C@H](CCCNC(=N)N)NC(=O)C(C)(C)NC(=O)[C@H](CC(=O)O)NC(=O)[C@H](CC(C)C)NC(=O)[C@H](Cc1ccc(O)cc1)NC(=O)[C@H](CCCCN)NC(=O)[C@H](CO)NC(=O)[C@H](Cc1ccc(O)cc1)NC(=O)[C@H](CC(=O)O)NC(=O)[C@H](CO)NC(=O)[C@@H](NC(=O)[C@H](Cc1ccccc1)NC(=O)[C@@H](NC(=O)CNC(=O)[C@H](CCC(N)=O)NC(=O)C(C)(C)NC(=O)[C@@H](N)Cc1c[nH]cn1)[C@@H](C)O)[C@@H](C)O)C(C)C)C(=O)N[C@@H](CCS(C)(=O)=O)C(=O)N[C@@H](CCC(=O)N[C@H](C(N)=O)[C@@H](C)O)C(=O)O
B3: TP564 (peptide)
peptide: H[Aib]QGTFTSDYSKYLD[Aib]RAAK([AEEA-AEEA-γGlu-C20‑OH])DFVQWL[Met(O2)]DT-NH2
B4: TP589 (peptide)
peptide: H[Aib]QGTFTSDYSKYLDERAAK([AEEA-AEEA-γGlu-C20‑OH])DFVQWL[Met(O2)][αMeD]T-NH2
B5: TP575 (peptide)
peptide: H[Aib]QGTFTSDYSKYLD[Aib]RAAQDFVK([AEEA-AEEA-γGlu-C18 diacid])WL[Met(O2)]DT-NH2
modifications: N-terminus assumed
SMILES: CC(C)C[C@H](NC(=O)[C@H](Cc1c[nH]c2ccccc12)NC(=O)[C@H](CCCCNC(=O)COCCOCCNC(=O)COCCOCCNC(=O)CC[C@H](NC(=O)CCCCCCCCCCCCCCCCC(=O)O)C(=O)O)NC(=O)[C@@H](NC(=O)[C@H](Cc1ccccc1)NC(=O)[C@H](CC(=O)O)NC(=O)[C@H](CCC(N)=O)NC(=O)[C@H](C)NC(=O)[C@H](C)NC(=O)[C@H](CCCNC(=N)N)NC(=O)C(C)(C)NC(=O)[C@H](CC(=O)O)NC(=O)[C@H](CC(C)C)NC(=O)[C@H](Cc1ccc(O)cc1)NC(=O)[C@H](CCCCN)NC(=O)[C@H](CO)NC(=O)[C@H](Cc1ccc(O)cc1)NC(=O)[C@H](CC(=O)O)NC(=O)[C@H](CO)NC(=O)[C@@H](NC(=O)[C@H](Cc1ccccc1)NC(=O)[C@@H](NC(=O)CNC(=O)[C@H](CCC(N)=O)NC(=O)C(C)(C)NC(=O)[C@@H](N)Cc1c[nH]cn1)[C@@H](C)O)[C@@H](C)O)C(C)C)C(=O)N[C@@H](CCS(C)(=O)=O)C(=O)N[C@@H](CC(=O)O)C(=O)N[C@H](C(N)=O)[C@@H](C)O
B6: TP597 (peptide)
peptide: H[Aib]QGTFTSDYSKLLDARAAK([AEEA-AEEA-γGlu-C18 diacid])DFVQWL[Met(O2)]DT-NH2
modifications: N-terminus assumed
SMILES: CC(C)C[C@H](NC(=O)[C@H](CC(C)C)NC(=O)[C@H](CCCCN)NC(=O)[C@H](CO)NC(=O)[C@H](Cc1ccc(O)cc1)NC(=O)[C@H](CC(=O)O)NC(=O)[C@H](CO)NC(=O)[C@@H](NC(=O)[C@H](Cc1ccccc1)NC(=O)[C@@H](NC(=O)CNC(=O)[C@H](CCC(N)=O)NC(=O)C(C)(C)NC(=O)[C@@H](N)Cc1c[nH]cn1)[C@@H](C)O)[C@@H](C)O)C(=O)N[C@@H](CC(=O)O)C(=O)N[C@@H](C)C(=O)N[C@@H](CCCNC(=N)N)C(=O)N[C@@H](C)C(=O)N[C@@H](C)C(=O)N[C@@H](CCCCNC(=O)COCCOCCNC(=O)COCCOCCNC(=O)CC[C@H](NC(=O)CCCCCCCCCCCCCCCCC(=O)O)C(=O)O)C(=O)N[C@@H](CC(=O)O)C(=O)N[C@@H](Cc1ccccc1)C(=O)N[C@H](C(=O)N[C@@H](CCC(N)=O)C(=O)N[C@@H](Cc1c[nH]c2ccccc12)C(=O)N[C@@H](CC(C)C)C(=O)N[C@@H](CCS(C)(=O)=O)C(=O)N[C@@H](CC(=O)O)C(=O)N[C@H](C(N)=O)[C@@H](C)O)C(C)C
B7: TP598 (peptide)
peptide: H[Aib]QGTFTSDYSKYLDAKAAK([AEEA-AEEA-γGlu-C18 diacid])DFVQWL[Met(O2)]DT-NH2
modifications: N-terminus assumed
SMILES: CC(C)C[C@H](NC(=O)[C@H](Cc1ccc(O)cc1)NC(=O)[C@H](CCCCN)NC(=O)[C@H](CO)NC(=O)[C@H](Cc1ccc(O)cc1)NC(=O)[C@H](CC(=O)O)NC(=O)[C@H](CO)NC(=O)[C@@H](NC(=O)[C@H](Cc1ccccc1)NC(=O)[C@@H](NC(=O)CNC(=O)[C@H](CCC(N)=O)NC(=O)C(C)(C)NC(=O)[C@@H](N)Cc1c[nH]cn1)[C@@H](C)O)[C@@H](C)O)C(=O)N[C@@H](CC(=O)O)C(=O)N[C@@H](C)C(=O)N[C@@H](CCCCN)C(=O)N[C@@H](C)C(=O)N[C@@H](C)C(=O)N[C@@H](CCCCNC(=O)COCCOCCNC(=O)COCCOCCNC(=O)CC[C@H](NC(=O)CCCCCCCCCCCCCCCCC(=O)O)C(=O)O)C(=O)N[C@@H](CC(=O)O)C(=O)N[C@@H](Cc1ccccc1)C(=O)N[C@H](C(=O)N[C@@H](CCC(N)=O)C(=O)N[C@@H](Cc1c[nH]c2ccccc12)C(=O)N[C@@H](CC(C)C)C(=O)N[C@@H](CCS(C)(=O)=O)C(=O)N[C@@H](CC(=O)O)C(=O)N[C@H](C(N)=O)[C@@H](C)O)C(C)C
B8: TP604 (peptide)
peptide: H[Aib]QGTFTSDYSKYLDARAAQDFVQWL[Met(O2)][Phe(4-CH2NH2)]([AEEA-AEEA-γGlu-C18 diacid])T-NH2
modifications: N-terminus assumed
SMILES: CC(C)C[C@H](NC(=O)[C@H](Cc1ccc(O)cc1)NC(=O)[C@H](CCCCN)NC(=O)[C@H](CO)NC(=O)[C@H](Cc1ccc(O)cc1)NC(=O)[C@H](CC(=O)O)NC(=O)[C@H](CO)NC(=O)[C@@H](NC(=O)[C@H](Cc1ccccc1)NC(=O)[C@@H](NC(=O)CNC(=O)[C@H](CCC(N)=O)NC(=O)C(C)(C)NC(=O)[C@@H](N)Cc1c[nH]cn1)[C@@H](C)O)[C@@H](C)O)C(=O)N[C@@H](CC(=O)O)C(=O)N[C@@H](C)C(=O)N[C@@H](CCCNC(=N)N)C(=O)N[C@@H](C)C(=O)N[C@@H](C)C(=O)N[C@@H](CCC(N)=O)C(=O)N[C@@H](CC(=O)O)C(=O)N[C@@H](Cc1ccccc1)C(=O)N[C@H](C(=O)N[C@@H](CCC(N)=O)C(=O)N[C@@H](Cc1c[nH]c2ccccc12)C(=O)N[C@@H](CC(C)C)C(=O)N[C@@H](CCS(C)(=O)=O)C(=O)N[C@@H](Cc1ccc(CNC(=O)COCCOCCNC(=O)COCCOCCNC(=O)CC[C@H](NC(=O)CCCCCCCCCCCCCCCCC(=O)O)C(=O)O)cc1)C(=O)N[C@H](C(N)=O)[C@@H](C)O)C(C)C
B9: TP443 (peptide)
peptide: H[Aib]QGTFTSDYSKYLDARAAQ[Phe(4-CH2NH2)]([AEEA-AEEA-γGlu-C18 diacid])FVQWLLDT-NH2
modifications: N-terminus assumed
SMILES: CC(C)C[C@H](NC(=O)[C@H](Cc1ccc(O)cc1)NC(=O)[C@H](CCCCN)NC(=O)[C@H](CO)NC(=O)[C@H](Cc1ccc(O)cc1)NC(=O)[C@H](CC(=O)O)NC(=O)[C@H](CO)NC(=O)[C@@H](NC(=O)[C@H](Cc1ccccc1)NC(=O)[C@@H](NC(=O)CNC(=O)[C@H](CCC(N)=O)NC(=O)C(C)(C)NC(=O)[C@@H](N)Cc1c[nH]cn1)[C@@H](C)O)[C@@H](C)O)C(=O)N[C@@H](CC(=O)O)C(=O)N[C@@H](C)C(=O)N[C@@H](CCCNC(=N)N)C(=O)N[C@@H](C)C(=O)N[C@@H](C)C(=O)N[C@@H](CCC(N)=O)C(=O)N[C@@H](Cc1ccc(CNC(=O)COCCOCCNC(=O)COCCOCCNC(=O)CC[C@H](NC(=O)CCCCCCCCCCCCCCCCC(=O)O)C(=O)O)cc1)C(=O)N[C@@H](Cc1ccccc1)C(=O)N[C@H](C(=O)N[C@@H](CCC(N)=O)C(=O)N[C@@H](Cc1c[nH]c2ccccc12)C(=O)N[C@@H](CC(C)C)C(=O)N[C@@H](CC(C)C)C(=O)N[C@@H](CC(=O)O)C(=O)N[C@H](C(N)=O)[C@@H](C)O)C(C)C
B10: TP608 (peptide)
peptide: HXQGTFTSDYSKYLDARAAQXFVQWLXXT
modifications: Aib (U) at 2; K(PEG5-γEC18-OH) at 21; L-methionine sulphone (2) at 27; αMD (printed aMD) at 28; C-terminal amide

Molecular target: human Glucagon receptor (GCGR) (human, UniProt P47871 26-477)
Sequence (P47871 26-477): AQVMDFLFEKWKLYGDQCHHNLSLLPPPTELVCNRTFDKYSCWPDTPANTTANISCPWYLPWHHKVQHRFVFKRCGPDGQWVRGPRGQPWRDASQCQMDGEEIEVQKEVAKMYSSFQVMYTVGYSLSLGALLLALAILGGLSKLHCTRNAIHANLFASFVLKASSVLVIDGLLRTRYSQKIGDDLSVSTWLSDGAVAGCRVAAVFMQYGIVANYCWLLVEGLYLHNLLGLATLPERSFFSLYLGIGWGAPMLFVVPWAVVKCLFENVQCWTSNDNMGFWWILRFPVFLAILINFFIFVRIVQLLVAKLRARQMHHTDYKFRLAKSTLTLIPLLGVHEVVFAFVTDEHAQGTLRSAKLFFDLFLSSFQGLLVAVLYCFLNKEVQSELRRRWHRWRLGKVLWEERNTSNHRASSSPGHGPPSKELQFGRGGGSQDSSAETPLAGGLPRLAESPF
Assay: cell-based or functional assay

Binder	GCGR EC50 human [nM]
B1	0.133
B2	0.228
B3	1.25
B4	19.8
B5	0.595
B6	0.74
B7	1.14
B8	1.09
B9	0.18
B10	0.21

Molecular target: human GLP-1 receptor (GLP1R) (human, UniProt P43220 24-463)
Assay: cell-based or functional assay

Binder	GLP1R EC50 human [nM]
B1	0.081
B2	0.587
B3	1.22
B4	2.07
B5	0.866
B6	0.61
B7	0.5
B8	0.47
B9	0.1
B10	0.23
